Test results reported in PMC6480712.

Biological target: T1, human dopamine D2 long receptor (D2LR) fused C-terminally to LgBiT or SmBiT of NanoLuciferase (human), P14416
T1 chain: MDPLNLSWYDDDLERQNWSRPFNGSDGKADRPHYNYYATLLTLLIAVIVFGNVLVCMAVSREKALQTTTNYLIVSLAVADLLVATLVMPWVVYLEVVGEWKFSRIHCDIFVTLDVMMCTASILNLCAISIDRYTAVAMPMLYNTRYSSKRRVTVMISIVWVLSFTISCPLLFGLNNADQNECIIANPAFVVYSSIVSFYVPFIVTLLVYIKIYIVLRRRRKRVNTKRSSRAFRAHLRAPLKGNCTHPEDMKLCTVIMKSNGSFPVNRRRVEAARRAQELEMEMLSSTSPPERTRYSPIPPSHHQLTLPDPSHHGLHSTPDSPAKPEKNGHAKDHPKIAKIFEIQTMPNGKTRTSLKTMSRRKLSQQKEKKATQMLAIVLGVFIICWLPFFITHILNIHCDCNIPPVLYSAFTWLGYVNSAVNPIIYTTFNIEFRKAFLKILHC
Test: split reporter (BiFC, NanoBiT); NanoBiT in HEK293T cells co-transfected with 400 ng D2LR–SmBiT, D2LR–LgBiT and increasing native (untagged) D2LR DNA (0–600 ng), without or with 10 µM spiperone; muscarinic M1 receptor co-transfected instead as control
Settings: remark: other sources report otherwise

fold increase of the luminescent signal with co-transfected native D2LR (4:4:6) against none: 20 fold | fold increase of the luminescent signal with co-transfected native D2LR (4:4:6) against none, cells treated with 10 µM spiperone: 5 fold
B1: human dopamine D2 long receptor (D2LR) fused C-terminally to LgBiT or SmBiT of NanoLuciferase, P14416-1 1-443 (receptor)
chain: T1 chain
